Biological target: trivalent Strep-Tactin-SpyCatcher

B1: Siglec-14 with N-terminal Strep-tag II, on THP-1 cells (receptor)
chain: SAWSHPQFEKEKPVYELQVQKSVTVQEGLCVLVPCSFSYPWRSWYSSPPLYVYWFRDGEIPYYAEVVATNNPDRRVKPETQGRFRLLGDVQKKNCSLSIGDARMEDTGSYFFRVERGRDVKYSYQQNKLNLEVTALIEKPDIHFLEPLESGRPTRLSCSLPGSCEAGPPLTFSWTGNALSPLDPETTRSSELTLTPRPEDHGTNLTCQVKRQGAQVTTERTVQLNVSYAPQNLAISIFFRNGTGTALRILSNGMSVPIQEGQSLFLACTVDSNPPASLSWFREGKALNPSQTSMSGTLELPNIGAREGGEFTCRVQHPLGSQHLSFILSVQRSSSSCICVTEKQQGSWPLVLTLIRGALMGAGFLLTYGLTWIYYTRCGGPQQSRAERPG
- IL-8 secretion of THP-1 Siglec-14–Strep-tag II DAP12 cells against Strep-tag II–binding sites of trivalent generic ligand per CHO cell; mean EC50 (Strep-tag II–binding sites per cell): 200000

From article PMC6922461
